Measured values from the supplement of paper PMC10567573.

B1: USP39 (parent)
chain: FQGSMRIFTKKLPHPDLPAEEKEQ
B2: FBXO3 (parent)
chain: HDPLWRRHCKKYWLISEEEKTQKN

Variants of: B1
Test: protein stability index of a GFP-peptide fusion (GPS, HEK-293T) (PSI 1-6); higher = more stable
Settings: c terminus: a fixed tail appended
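Note: lentivirally expressed fusions sorted by FACS into six bins by GFP to DsRed ratio, PSI derived from sequencing read proportions per bin multiplied by bin number.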

| Variant | protein stability index |
| --- | --- |
| FQGSMRIFTKKLPHPDLPAEEKWQ [E23W] | 2.19 |
| FQGSMRIFTKKLPHPDLPAEEKTQ [E23T] | 1.61 |
| FQGSMRIFTKKLPHPDLPAEEKVQ [E23V] | 1.47 |
| FQGSMRIFTKKLPHPDLPAEEKYQ [E23Y] | 1.66 |
| FQGSMRIFTKKLPHPDLPAEEKSQ [E23S] | 1.98 |
| FQGSMRIFTKKLPHPDLPAEEKEM [Q24M] | 2.05 |
| FQGSMRIFTKKLPHPDLPAEEKEN [Q24N] | 2.12 |
| FQGSMRIFTKKLPHPDLPAEEKEV [Q24V] | 1.52 |
| FQGSMRIFTKKLPHPDLPAEEKEI [Q24I] | 2.13 |
| FQGSMRIFTKKLPHPDLPAEEKER [Q24R] | 2.15 |
| FQGSMRIFTKKLPHPDLPAEEKES [Q24S] | 2.14 |
| FQGSMRIFTKKLPHPDLPAEEKEC [Q24C] | 2.15 |
| FQGSMRIFTKKLPHPDLPAEEKEE [Q24E] | 1.81 |
| FQGSMRIFTKKLPHPDLPAEEKEP [Q24P] | 1.83 |
| FQGSMRIFTKKLPHPDLPAEEKEK [Q24K] | 2.37 |
| FQGSMRIFTKKLPHPDLPAEEKEG [Q24G] | 2.42 |
| FQGSMRIFTKKLPHPDLPAEEKED [Q24D] | 2.32 |
| FQGSMRIFTKKLPHPDLPAEEKEY [Q24Y] | 1.62 |
| FQGSMRIFTKKLPHPDLPAEEKEA [Q24A] | 2.05 |
| FQGSMRIFTKKLPHPDLPAEEKEF [Q24F] | 1.87 |
| FQGSMRIFTKKLPHPDLPAEEKEW [Q24W] | 1.33 |
| FQGSMRIFTKKLPHPDLPAEEKET [Q24T] | 2.1 |
| FQGSMRIFTKKLPHPDLPAEEKEL [Q24L] | 1.91 |
| FQGSMRIFTKKLPHPDLPAEEKEH [Q24H] | 2.05 |

Variants of: B2
Test: as above
Settings: c terminus: a fixed tail appended

| Variant | protein stability index |
| --- | --- |
| HPPLWRRHCKKYWLISEEEKTQKN [D2P] | 3.13 |
| HIPLWRRHCKKYWLISEEEKTQKN [D2I] | 2.25 |
| HHPLWRRHCKKYWLISEEEKTQKN [D2H] | 2.18 |
| HYPLWRRHCKKYWLISEEEKTQKN [D2Y] | 2.56 |
| HGPLWRRHCKKYWLISEEEKTQKN [D2G] | 1.62 |
| HDHLWRRHCKKYWLISEEEKTQKN [P3H] | 2.97 |
| HDFLWRRHCKKYWLISEEEKTQKN [P3F] | 2.41 |
| HDALWRRHCKKYWLISEEEKTQKN [P3A] | 3.58 |
| HDILWRRHCKKYWLISEEEKTQKN [P3I] | 3.08 |
| HDKLWRRHCKKYWLISEEEKTQKN [P3K] | 3.03 |
| HDDLWRRHCKKYWLISEEEKTQKN [P3D] | 3.33 |
| HDPLWRRHCKKYHLISEEEKTQKN [W13H] | 4.21 |
| HDPLWRRHCKKYTLISEEEKTQKN [W13T] | 4.22 |
| HDPLWRRHCKKYCLISEEEKTQKN [W13C] | 3.67 |
| HDPLWRRHCKKYRLISEEEKTQKN [W13R] | 3.46 |
| HDPLWRRHCKKYNLISEEEKTQKN [W13N] | 4.37 |
| HDPLWRRHCKKYALISEEEKTQKN [W13A] | 4.04 |
| HDPLWRRHWKKYWLISEEEKTQKN [C9W] | 3.16 |
| HDPLWRRHKKKYWLISEEEKTQKN [C9K] | 3.59 |
| HDPLWRRHVKKYWLISEEEKTQKN [C9V] | 3.8 |
| HDPLWRRHFKKYWLISEEEKTQKN [C9F] | 2.65 |
| HDPLWRRHIKKYWLISEEEKTQKN [C9I] | 3.58 |
| HDPLWRRHLKKYWLISEEEKTQKN [C9L] | 2.93 |
| HDPLWRRHRKKYWLISEEEKTQKN [C9R] | 3.68 |

| Variant | protein stability index |
| --- | --- |
| HDPMWRRHCKKYWLISEEEKTQKN [L4M] | 3.26 |
| HDPVWRRHCKKYWLISEEEKTQKN [L4V] | 3.32 |
| HDPPWRRHCKKYWLISEEEKTQKN [L4P] | 3.73 |
| HDPWWRRHCKKYWLISEEEKTQKN [L4W] | 3.63 |
| HDPLWRRHCKKYWLISEETKTQKN [E19T] | 2.71 |
| HDPLWRRHCKKYWLISEEWKTQKN [E19W] | 1.9 |
| HDPLWRRHCKKYWLISEEHKTQKN [E19H] | 2.91 |
| HDPLWRRHCKKYWLISEEGKTQKN [E19G] | 3.05 |
| HDPLWRRHCKKYWLISEEKKTQKN [E19K] | 2.92 |
| HDPLWRRHCKKYWLISEEYKTQKN [E19Y] | 2.54 |
| HDPLWRRHCKKYWLISEEPKTQKN [E19P] | 2.98 |
| HDPLWRRWCKKYWLISEEEKTQKN [H8W] | 1.88 |
| HDPLWRRICKKYWLISEEEKTQKN [H8I] | 1.63 |
| HDPLWRRECKKYWLISEEEKTQKN [H8E] | 3.63 |
| HDPLWRRDCKKYWLISEEEKTQKN [H8D] | 4.29 |
| HDPLWRRCCKKYWLISEEEKTQKN [H8C] | 2.03 |
| HDPLWRRNCKKYWLISEEEKTQKN [H8N] | 3.15 |
| HDPLWRRKCKKYWLISEEEKTQKN [H8K] | 2.89 |
| HDPLWRRQCKKYWLISEEEKTQKN [H8Q] | 3.72 |
| HDPLWRRVCKKYWLISEEEKTQKN [H8V] | 2.56 |
| HDPLWRRPCKKYWLISEEEKTQKN [H8P] | 3.4 |
| HDPLWRRFCKKYWLISEEEKTQKN [H8F] | 1.73 |
| HDPLWRRTCKKYWLISEEEKTQKN [H8T] | 2.79 |
| HDPLWRRMCKKYWLISEEEKTQKN [H8M] | 2.23 |

| Variant | protein stability index |
| --- | --- |
| HDPLWRRHCKKYWLIYEEEKTQKN [S16Y] | 2.72 |
| HDPLWRRHCKKYWLIDEEEKTQKN [S16D] | 3.84 |
| HDPLWRRHCKKYWLIHEEEKTQKN [S16H] | 3.09 |
| HDPLWRRHCKKYWLITEEEKTQKN [S16T] | 3.51 |
| HDPLWRRHCKKYWLIWEEEKTQKN [S16W] | 2.52 |
| HDPLWRRHCKKYWLIIEEEKTQKN [S16I] | 2.4 |
| HDPLWRRHCKKYWLIMEEEKTQKN [S16M] | 2.99 |
| HDPLWRRHCKKYWLIKEEEKTQKN [S16K] | 3.21 |
| HDPLWRRHCKKYWLIEEEEKTQKN [S16E] | 3.8 |
| HDPLWRRHCKKYWLIFEEEKTQKN [S16F] | 2.46 |
| HDPLWRRHCKKYWLISEEEKTQRN [K23R] | 3.16 |
| HDPLWRRHCKKYWLISEEEKTQTN [K23T] | 3.31 |
| HDPLWRRHCKKYWLISEEEKTQEN [K23E] | 3.8 |
| HDPLWRRHCKKYWLISEEEKTQPN [K23P] | 3.11 |
| HDPLWRRHCKKYWLISEEEKTQWN [K23W] | 2.7 |
| HDPLWRRHCKKYWLISEEEKTQNN [K23N] | 3.05 |
| HDPLWRRHCKFYWLISEEEKTQKN [K11F] | 2.4 |
| HDPLWRRHCKVYWLISEEEKTQKN [K11V] | 2.28 |
| HDPLWRRHCKNYWLISEEEKTQKN [K11N] | 2.65 |
| HDPLWRRHCKIYWLISEEEKTQKN [K11I] | 2.27 |
| HDPLWRRHCKLYWLISEEEKTQKN [K11L] | 1.93 |
| HDPLWRRHCKEYWLISEEEKTQKN [K11E] | 3.59 |
